Data on one protein can be found in ChEMBL document CHEMBL2074291, “Species differences in the transport activity for organic anions across the bile canalicular membrane” (J Pharmacol Exp Ther, 1999).

Substrate in this data set: N[C@@H](CCC(=O)N[C@H](CSc1ccc([N+](=O)[O-])cc1[N+](=O)[O-])C(=O)NCC(=O)O)C(=O)O
Kind of data set: TP_TRANSPORTER: uptake in bile canalicular membrane vesicles from ddY mouse. Type of data set: functional, cell membranes, Bile canalicular membrane vesicle.

B1: ATP-binding cassette sub-family C member 2 (Mus musculus) (protein)
chain: MDEFCNSTFWNLSLLKSPEADLPLCFEQTVLVWIPLGFLWLLAPWQLYRIYRSRTKRFAITKFYLAKQVFVVCLLILAAIDLSLALTEDTGQATIPPVKYTNPILYLCTWLLVLVIQHCRQCCIQKNSWFLSMFWILSLLCGIFQFQTLIRALLQDSKSNMTYSCLFFVSYGFQIVILILSAFSESSDSTHAPSATASFLSSVTFSWYDSTVLKGYKHPLTIEDVWDIEENLKAKSLTSKFKTIMTKDLQKARQALQRRLKKSQQSPEGTSHGLTKKQSQSQDVLVLEDSKKKKKKSEATKDFPKSWLVKALFKTFYVVILKSFILKLAHDILLFLNPQLLKFLIGFVKDPDSYPWVGYIYAILMFSVTLIQSFFLQCYFQFCFVLGMTVRTTIIASVYKKALTLSNLARRQYTIGETVNLMSVDSQKLMDVTNYIHLLWSSVLQIALSIFFLWRELGPSILAGVGLMVLLVPVNGVLATKIRKIQVQNMKNKDKRLKIMNEILSGIKILKYFAWEPSFKEQVNSIRKKELRNLLRFSQLQTILIFILHLTPTLVSVITFSVYVLVDSQNVLNAEKAFTSITLFNILRFPLAMLPMVISSVIQASVSVDRLEQYLGSDDLDLSAIRHVCHFDKAVQFSEASFTWDRDLEATIQDVNLDIKPGQLVAVVGTVGSGKSSLISAMLGEMENVHGHITIKGSIAYVPQQAWIQNGTIKDNILFGSEYDEKKYQRVIEACALLPDLEMLPGGDMAEIGEKGINLSGGQKHRVSLARATYQDADIYILDDPLSAVDTHVGKHIFNKVVGPNGLLSGKTRILVTHGIHFLPQVDEIVVLGKGTILEKGSYSDLMDKKGVFAKNWKTFMKHSGPEGEATVDNDSEEEDGDCGLIPTVEEIPDDAASLTMRRENSLRRTLSRSSRSGSRRGKSLKSSLKIKSVNALNKKEEVVKGQKLIKKEFVETGKVKFSIYLKYLQAVGWWSLLFIVIFYVLNYVAFIGTNLWLSAWTSDSEKQNGTDNSPSQRDMRIGVFGALGIAQGIFLLSSSLWSIYACRNASKTLHRQLLTNILRAPMSFFDTTPTGRIVNRFAGDISTVDDTLPQTLRSWLLCFFGIVSTLVMICMATPIFIIIIIPLSILYVSVQVFYVATSRQLRRLDSVTKSPIYSHFSETVSGLPVIRAFEHQQRFLANSEKQIDTNQKCVFSWITSNRWLAIRLELVGNLIVFCSALLLVIYKNSLTGDTVGFVLSNALNITQTLNWLVRMTSEVETNIVAVERINEYINVDNEAPWVTDKKPPADWPKKGEIQFNNYQVRYRPELDLVLKGITCNIKSTEKVGVVGRTGAGKSSLTNCLFRILESAGGQIIIDGIDIASIGLHDLRGRLTIIPQDPILFSGNLRMNLDPFNKYSDEEIWRALELAHLKSFVAGLQLGLLHEVTEGGDNLSIGQRQLLCLGRAVLRKSKILVLDEATAAVDLETDSLIQTTIRNEFSQCTVITIAHRLHTIMDSDKIMVLDSGKIVEYGSPEELLSNMGPFYLMAKEAGIESVNHTEL
For orientation: Km means the concentration of substrate that gives half-maximal velocity. For the protein B1, the Km was 25.5 µM.
